In the test the target is SARS-CoV-2-RBD-AVI probe (SARS-CoV-2) (UniProt P0DTC2). Nature of the test: SPR.

From article doi:10.1101/2020.06.22.166033 come the findings set out here.

Broadly, the Kd is the equilibrium constant for the complex coming apart. Substance CR3022 Fab gave a Kd of 0.025 µM.
